Measured values: patent US20060246421
Substitutions are numbered along the chain they refer to. Names may count otherwise.

B1: NS3 helicase (NS3h), wild type, hepatitis C virus (protein)
chain: AVDFVPVESMETTMRSPVFTDNSSPPAVPQTFQVAHLHAPTGSGKSTKVPAAYAAQGYKVLVLNPSVAATLGFGAYMSKAHGIDPNIRTGVRTITTGAPITYSTYGKFLADGGCSGGAYDIIICDECHSTDSTTILGIGTVLDQAETAGARLVVLATATPPGSVTVPHPNIEEVALSSTGEIPFYGKAIPIETIKGGRHLIFCHSKKKCDELAAKLSGLGLNAVAYYRGLDVSVIPTSGDVIVVATDALMTGFTGDFDSVIDCNTCVTQTVDFSLDPTFTIETTTVPQDAVSRSQRRGRTGRGRMGIYRFVTPGERPSGMFDSSVLCECYDAGCAWYELTPAETSVRLRAYLNTPGLPVCQDHLEFWESVFTGLTHIDAHFLSQTKQAGDNFPYLVAYQATVCARAQAPPPSWDQMWKCLIRLKPTLHGPTPLLYRLGAVQNEVTTTHPITKYIMACMSADLEVVT
B2: NS3h KDA (D543K/H545D/Q549A mutant NS3 helicase) (protein)
chain: B1 chain with D378K, H380D, Q384A

Protein	amplitude of single turnover DNA unwinding (processivity)
B1	0.35 ± 0.01 nM
B2	0.21 ± 0.01 nM
